How the values were obtained:
[1] = system: avathrin (Amblyomma variegatum thrombin inhibitor)
[2] = system: ultravariegin
[3] = system: avathrin K10R
[4] = system: β-avathrin
β-avathrin, sequence (chain, as listed by the source): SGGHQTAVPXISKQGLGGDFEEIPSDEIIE

avathrin (Amblyomma variegatum thrombin inhibitor), sequence (chain, as listed by the source): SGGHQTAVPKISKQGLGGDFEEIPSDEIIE
ultravariegin, sequence (chain, as listed by the source): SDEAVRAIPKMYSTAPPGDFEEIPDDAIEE
avathrin K10R, sequence (chain, as listed by the source K10R): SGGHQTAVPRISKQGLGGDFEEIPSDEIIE

human α-thrombin (recombinant)
time to complete cleavage by thrombin (30:1 peptide to enzyme) [1]: avathrin was completely cleaved at ~10 h | time to complete cleavage by thrombin [2]: At 18 h, ultravariegin was completely cleaved | time to complete cleavage by thrombin [3]: resulting in complete cleavage within 3 h | cleavage by thrombin [4]: it was not cleaved by thrombin for up to 72 h
